From article PMC6698744
Like-named read-outs stand apart in the source and are kept apart here.

How the values were obtained:
A3Gctd-2K3A-E259A [1] = target: T1, A3Gctd-2K3A-E259A (UniProt Q9HC16 191-384, L234K;C243A;E259A;F310K;C321A;C356A); test: MST
A3Gctd-2K3A-E259A [2] = target: T1, A3Gctd-2K3A-E259A; test: MST; remark: listed apart in the source

T1 sequence (Q9HC16 191-384 L234K/C243A/E259A/F310K/C321A/C356A): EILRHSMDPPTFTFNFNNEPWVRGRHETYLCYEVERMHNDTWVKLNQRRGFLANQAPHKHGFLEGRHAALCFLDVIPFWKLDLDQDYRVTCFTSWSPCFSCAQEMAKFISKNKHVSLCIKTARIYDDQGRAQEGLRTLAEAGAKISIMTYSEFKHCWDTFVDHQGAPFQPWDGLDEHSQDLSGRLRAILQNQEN

| Binder | Kd (A3Gctd-2K3A-E259A [1]) [µM] | Kd (A3Gctd-2K3A-E259A [2]) [µM] |
| --- | --- | --- |
| AATCCCAAA (ssDNA) [5'-AATCCCAAA (substrate)] | 1570 ± 160 |  |
| ATTCCCAATT (XNA, 2'-deoxy-2'-fluororibocytidine at position 6, rest DNA) [5'-ATTCC(2'-F-RNA)CAATT] | 3760 ± 300 |  |
| AATCCUAAA (ssDNA, deoxyuridine at position 6) [5'-AATCCdUAAA (intermediate product)] | 2170 ± 250 |  |
| AATCCCAAA (ssDNA, ribocytidine at position 6, rest DNA) [5'-AATCCrCAAA] | 6650 ± 860 |  |
| ATTCCCAATT (XNA, 2'-deoxy-2'-fluoroarabinocytidine at position 6, rest DNA) [5'-ATTCC(2'-F-ANA)CAATT] |  | 1740 ± 490 |
